# From patent US20080138334A1, “Immune-Derived Moieties Reactive Against Bioactive Lipids, and Methods of Making and Using Same” (priority 2006, published 2008)
# “Also recorded” adds a separate entry of the source. Like-named read-outs stand apart in the source and are kept apart here.
# B1: anti-S1P mAb: murine IgG1 kappa monoclonal antibody against S1P from hybridoma clone 306D326.26 (ATCC SD-5362) (antibody, V domains shown)
# VH: QAHLQQSDAELVKPGASVKISCKVSGFIFIDHTIHWMKQRPEQGLEWIGCISPRHDITKYNEMFRGKATLTADKSSTTAYIQVNSLTFEDSAVYFCARGGFYGSTIWFDFWGQGTTLTVS
# VL: ETTVTQSPASLSMAIGEKVTIRCITTTDIDDDMNWFQQKPGEPPNLLISEGNILRPGVPSRFSSSGYGTDFLFTIENMLSEDVADYYCLQSDNLPFTFGSGTKLEIK
# Assays:
# [1] = Direct ELISA, chimeric antibody and mutants binding to S1P; conditions: for Binding: antibody concentration 0.1 ug/ml, S1P-coated plate
# Description: Microtiter ELISA plates (Costar) were coated overnight with S1P diluted in 1 M Carbonate Buffer (pH 9.5) at 37° C. for 1 hr. Plates were washed with PBS (137 mM NaCl, 2.68 mM KCl, 10.1 mM Na2HPO4, 1.76 mM KH2PO4; pH 7.4) and blocked with PBS/BSA/Tween-20 for 1 hr at room temp or overnight at 4° C. For the primary incubation (1 hr at room temp.), a standard curve using the anti-S1P mAb and the samples to be tested for binding was built using the following set of dilutions: 0.4 μg/mL, 0.2 μg/mL, 0.1 μg/mL, 0.05 μg/mL, 0.0125 μg/mL, and 0 μg/mL, and 100 μl added to each well. Plates were washed and incubated with 100 μl per well of HRP conjugated goat anti-mouse (1:20,000 dilution) (Jackson Immuno Research) or HRP conjugated goat anti-human (H+L) diluted 1:50,000 (Jackson Immuno Research) for 1 hr at room temperature. After washing, the enzymatic reaction was detected with tetramethylbenzidine (Sigma) and stopped by adding 1 M H2SO4. The optical density (OD) was measured at 450 nm using a Thermo Multiskan EX. Raw data were transferred to GraphPad software for analysis.
# The chromogenic reaction was measured and reported as Optical density (OD). The concentration of the panel of antibodies was 0.1 ug/ml. No interaction of the second antibody with S1P-coated matrix alone was detected.
# Caki-1 cells = experiment: In vitro IL-8 production, ELISA of culture supernatants; assay type: cell-based, human; conditions: 18:1 LPA (0.2 mM), 24h, non-treated cells
# Description: Three anti-LPA mAbs (B3, B7 and B58) were tested for their abilities to reduce in vitro IL-8 production compared to a non-specific antibody (NS). Caki-1 cells were seeded in 96 well plates and grown to confluency. After overnight serum starvation, cells were treated with 18:1 LPA (0.2 mM) with or without anti-LPA mAb B3, B7, B58 or NS (Non-Specific). After 24h, cultured supernatants of renal cancer cells (Caki-1), treated with or without LPA and in presence of increasing concentrations of the anti-LPA mAbs B3, B7 and B58, were collected and analyzed for IL-8 levels using a commercially available ELISA kit (Human Quantikine Kit, R&D Systems, Minneapolis, Minn.). […] Similar results were obtained with the other well-known pro-angiogenic factor, VEGF. The inhibition of IL-8 release by the anti-LPA mAbs was also observed in other cancerous cell lines such as the pancreatic cell line Panc-1.
# [2] = BIAcore binding kinetics of anti-S1P mAb to immobilized S1P; conditions: depending on monovalent or bivalent binding model, read-out: affinity of the monoclonal antibody to S1P
# Description: Binding kinetics: The binding kinetics of S1P to its receptor or other moieties has, traditionally, been problematic because of the nature of lipids. Many problems have been associated with the insolubility of lipids. For BIAcore measurements, these problems were overcome by directly immobilizing S1P to a BIAcore chip. Antibody was then flowed over the surface of the chip and alterations in […] were measured to determine the binding characteristics of the antibody to S1P. To circumvent the bivalent binding nature of antibodies, S1P was coated on the chip at low densities. Additionally, the chip was coated with various densities of S1P (7, 20, and 1000 RU) and antibody binding data was globally fit to a 1:1 interaction model.
# [3] = Competitive ELISA for cross reactivity of anti-S1P mAb, competitor LPA; assay type: binding; conditions: LPA (glycerol backbone)
# Description: (§1) Screening of serum and cell supernatant for S1P-specific antibodies was by direct ELISA using the thiolated S1P analog described in Example 1 (i.e., compound 10) as the antigen. A standard ELISA was performed, as described below, except that 50 ul of sample (serum or cell supernatant) was diluted with an equal volume of PBS/0.1% Tween-20 (PBST) during the primary incubation. ELISAs were performed in 96-well high binding ELISA plates (Costar) coated with 0.1 μg of chemically-synthesized compound 10 conjugated to BSA in binding buffer (33.6 mM Na2CO3, 100 mM NaHCO3; pH 9.5). The thiolated-S1P-BSA was incubated at 37° C. for 1 hr. at 4° C. overnight in the ELISA plate wells. The plates were then washed four times with PBS (137 mM NaCl, 2.68 mM KCl, 10.14 mM Na2HPO4, 1.76 mM KH2PO4; pH 7.4) and blocked with PBST for 1 hr. at room temperature. For the primary incubation step, 75 uL of the sample (containing the S1P to be measured), was incubated with 25 uL of 0.1 ug/mL anti-S1P mAb diluted in PBST and added to a well of the ELISA plate. […] Optical density of the samples was determined by measurement at 450 nm using an EL- X-800 ELISA plate reader (Bio-Tech).
# (§2) For cross reactivity, a competitive ELISA was performed as described above, except for the following alterations (FIG. 4). […] Biotin incorporation was determined as per kit protocol and ranged from 7 to II biotin molecules per antibody. […]
# [4] = Competitive ELISA for cross reactivity of anti-S1P mAb, competitor C1P; assay type: binding; conditions: C1P (amino group esterified to a fatty acid)
# Description: as §1, §2
# [5] = ELISA with exchanged crosslinker or protein carrier in the laydown material; assay type: binding
# Excerpt: For example, the normal crosslinker SMCC was exchanged for IOA in conjugating the thiolated-S1P to BSA as the laydown material in the ELISA. […] Similarly, KLH was exchanged for BSA as the protein that was complexed with thiolated-S1P as the laydown material.
# [6] = Competitive ELISA for cross reactivity of anti-S1P mAb, competitor S1P; assay type: binding
# Description: as §1, §2
# [7] = Competitive ELISA for cross reactivity of anti-S1P mAb, competitor SPC; assay type: binding; conditions: competitor SPC (free phosphate linked with a choline)
# Description: as §1, §2
# [8] = Competitive ELISA for cross reactivity of anti-S1P mAb, competitor DH-S1P; assay type: binding
# Description: as §1, §2
molecule,measurement,setting,value
MetLeu,Binding,[1],1.6 OD
CysPhe,binding to S1P compared with the chimeric antibody,"[1]; ELISA, substitution of Cys at position 50 of heavy chain",did not alter the binding
same,Binding,[1],2 OD
lysophosphatidic acid [LPA],increase of the expression of IL-8,Caki-1 cells,100%
B1,Kd,[2]; lower end,~0.088 nM
same,Kd,[2]; upper end,~99 nM
same,antibody binding,[3],no binding
same,antibody binding,[4],no antibody binding was observed
same,binding characteristics versus BSA laydown,[5]; KLH exchanged for BSA as protein,no significant difference
same,binding characteristics versus BSA-SMCC-thiolated-S1P laydown,[5]; SMCC exchanged for IOA,nearly identical
same,distinction of thiolated-S1P analog (compound 10) from natural S1P,[6]; competition experiment,unable to distinguish
same,competition for the mAb binding to S1P on the plate,[6]; competitor free S1P,can compete for binding
same,competition for the mAb binding to S1P on the plate,[7],somewhat reduced; also recorded: only slightly competes for binding
same,competition for the mAb binding to S1P on the plate,[8],can compete for binding
